This is an account of results in US20100158926A1.

For test [1], the target named is human ErbB2 ECD-myc/His fusion protein (human). As to the kind of experiment: limited antigen ELISA, 31 ng/ml antigen coated, supernatant 1:25, OD 450 nm. (An ELISA detects its analyte on a solid surface through an enzyme-linked reagent.)
For test [2], the target named is human ErbB2, full length, on cells (B300.19/hErbB2 clone #44; MCF7; BT474; SKBR3) (human).
For test [3], the target named is human ErbB2 ECD-myc/His fusion protein (human). Briefly: SPR, medium resolution Biacore 2000; mAb captured on goat anti-human IgG, ErbB2(ECD)-cMyc/His injected; 1:1 fit. In general terms: SPR reads the build-up and loss of mass on a sensor chip optically.
Test [4] deals with human ErbB2, full length, on cells (B300.19/hErbB2 clone #44; MCF7; BT474; SKBR3) (human). The source holds these as a separate data set.
Test [5] has the same target. This is another data set of the same source.
The target is the same in test [6]. The source holds these as a separate data set.
The target is the same in test [7]. The source holds these as a separate data set.
The target is the same in test [8]. The source holds these as a separate data set.
The target of test [9] is human ErbB2 ECD-myc/His fusion protein (human). As to the kind of experiment: SPR, high resolution Biacore T100; mAb captured on goat anti-human IgG, hHer-2(ECD)cMyc injected; 1:1 fit.

B1: monoclonal antibody 1.39 (antibody, V domains shown)
VH: QLQLQESGPGLVKPSETLSLTCTVSGGSISSSTYYWGWIRQPPGKGLEWIGTIYYSGSTYYNPSLKSRVTISVDTSKNQFSLKLNSVTAADTAVYYCARHHWVFDYWGQGTLVTVSS
VL: EIVLTQSPDFLSVTPKEKVTITCRASQIIGSSLHWYQQKPDQSPKLLIKYASQSFSGVPSRFSGSGSGTDFTLTLNSLEAEDAATYYCHQSTILPWTFGQGTKVEIK
The term Kd denotes the constant that tells how readily two partners part at equilibrium. Read a high Kd as a looser complex. As usually defined, the koff is the first-order rate constant of dissociation. A high value points to a short-lived complex. A word on the kon: it is the second-order rate constant of association. A high value points to fast association. For B1, the LA at 31 ng/ml in test [1] stood at 2.57 OD. Besides, the % Inhibition @10 µg/ml (n1), ErbB2 phosphorylation in BT474 cells at 48 hours in [2] came out at 37%. Further, in test [3], the Kd came out at 2 nM, the koff amounted to 0.000236 s⁻¹ and the kon was 115000 M⁻¹ s⁻¹. For the same molecule, in [4], the EC50 (ng/ml) n1, inhibition of Heregulin-induced ErbB2 phosphorylation in MCF7 cells turned out to be 46.9 ng/mL and the EC50 (ng/ml) n2, inhibition of Heregulin-induced ErbB2 phosphorylation in MCF7 cells stood at 26.3 ng/mL. The same molecule showed a 24 hr pTyr inhibition % (line 1*39) in test [5] of 99%. In test [6], this molecule returned a % Inhibition @10 µg/ml, Heregulin-induced MCF7 cell proliferation of 89% and an EC50 (ng/ml), inhibition of Heregulin-induced MCF7 cell proliferation of 479 ng/mL. Also, in test [7], the % inhibition @36 µg/ml, SKBR3 cell proliferation was 41% and the EC50 (ng/ml), inhibition of SKBR3 cell proliferation is 68.9 ng/mL. Further, in [8], the N1 % Inhibition @40 µg/ml, BT474 cell proliferation amounted to 29%; the N1 EC50 (ng/ml), inhibition of BT474 cell proliferation came to 156 ng/mL; the N2 EC50 (ng/ml), inhibition of BT474 cell proliferation turned out to be 42.3 ng/mL. Besides, in test [9], the equilibrium dissociation constant (Kd) is 13.4 nM, the koff was found to be 0.000214 s⁻¹ and the kon stood at 16000 M⁻¹ s⁻¹.
